In the RNAGym collection of RNA variant scans (doi:10.1021/acssynbio.7b00057):

B1: Pistol ribozyme (parent)
chain: GGGUCGUUGUUCCAUAAUCGCGUGGAUAUGGCACGCAAGUUUCUACCGGGCACCGUAAAUGUCCGACUGGAGCCGUUCGGGCGGCUAUAAACAGACCUCAGGCCCGAAGCGUGGCGGCACCUGCCGCCGGUGGUAAAAAAGAUCGGAAGAGCACACGUCU

Variants of: B1
Experiment: aptazyme ON/OFF ratio, guanine; higher = stronger switching; co-transcriptional cleavage with and without guanine

Row | Variant | aptazyme ON/OFF ratio
1 | GGGUCGCUACUCGAUAAUCGCGUGGAUAUGGCACGCAAGUUUCUACCGGGCACCGUAAAUGUCCGACUGGAGCCGUUCGGGCGGCUAUAAACAGACCUCAGGCCCGAAGCGUGGCGGCACCUGCCGCCGGUGGUAAAAAAGAUCGGAAGAGCACACGUCU [U7C G9A U10C C13G] | 1.06
2 | GGGUCGCUACUCAAUAAUCGCGUGGAUAUGGCACGCAAGUUUCUACCGGGCACCGUAAAUGUCCGACUGGAGCCGUUCGGGCGGCUAUAAACAGACCUCAGGCCCGAAGCGUGGCGGCACCUGCCGCCGGUGGUAAAAAAGAUCGGAAGAGCACACGUCU [U7C G9A U10C C13A] | 1.07
3 | GGGUCGCUACUCUAUAAUCGCGUGGAUAUGGCACGCAAGUUUCUACCGGGCACCGUAAAUGUCCGACUGGAGCCGUUCGGGCGGCUAUAAACAGACCUCAGGCCCGAAGCGUGGCGGCACCUGCCGCCGGUGGUAAAAAAGAUCGGAAGAGCACACGUCU [U7C G9A U10C C13U] | 1.96
4 | GGGUCGCUACAUAAUAAUCGCGUGGAUAUGGCACGCAAGUUUCUACCGGGCACCGUAAAUGUCCGACUGGAGCCGUUCGGGCGGCUAUAAACAGACCUCAGGCCCGAAGCGUGGCGGCACCUGCCGCCGGUGGUAAAAAAGAUCGGAAGAGCACACGUCU [U7C G9A U10C U11A C12U C13A] | 1.21
5 | GGGUCGCUACAUGAUAAUCGCGUGGAUAUGGCACGCAAGUUUCUACCGGGCACCGUAAAUGUCCGACUGGAGCCGUUCGGGCGGCUAUAAACAGACCUCAGGCCCGAAGCGUGGCGGCACCUGCCGCCGGUGGUAAAAAAGAUCGGAAGAGCACACGUCU [U7C G9A U10C U11A C12U C13G] | 1.22
6 | GGGUCGCUACAUUAUAAUCGCGUGGAUAUGGCACGCAAGUUUCUACCGGGCACCGUAAAUGUCCGACUGGAGCCGUUCGGGCGGCUAUAAACAGACCUCAGGCCCGAAGCGUGGCGGCACCUGCCGCCGGUGGUAAAAAAGAUCGGAAGAGCACACGUCU [U7C G9A U10C U11A C12U C13U] | 1.39
7 | GGGUCGCUACUUCAUAAUCGCGUGGAUAUGGCACGCAAGUUUCUACCGGGCACCGUAAAUGUCCGACUGGAGCCGUUCGGGCGGCUAUAAACAGACCUCAGGCCCGAAGCGUGGCGGCACCUGCCGCCGGUGGUAAAAAAGAUCGGAAGAGCACACGUCU [U7C G9A U10C C12U] | 1.2
8 | GGGUCGCUACUGCAUAAUCGCGUGGAUAUGGCACGCAAGUUUCUACCGGGCACCGUAAAUGUCCGACUGGAGCCGUUCGGGCGGCUAUAAACAGACCUCAGGCCCGAAGCGUGGCGGCACCUGCCGCCGGUGGUAAAAAAGAUCGGAAGAGCACACGUCU [U7C G9A U10C C12G] | 1.2
9 | GGGUCGCUACUAUAUAAUCGCGUGGAUAUGGCACGCAAGUUUCUACCGGGCACCGUAAAUGUCCGACUGGAGCCGUUCGGGCGGCUAUAAACAGACCUCAGGCCCGAAGCGUGGCGGCACCUGCCGCCGGUGGUAAAAAAGAUCGGAAGAGCACACGUCU [U7C G9A U10C C12A C13U] | 1.31
10 | GGGUCGCUACUGGAUAAUCGCGUGGAUAUGGCACGCAAGUUUCUACCGGGCACCGUAAAUGUCCGACUGGAGCCGUUCGGGCGGCUAUAAACAGACCUCAGGCCCGAAGCGUGGCGGCACCUGCCGCCGGUGGUAAAAAAGAUCGGAAGAGCACACGUCU [U7C G9A U10C C12G C13G] | 1.26
11 | GGGUCGCUACUGAAUAAUCGCGUGGAUAUGGCACGCAAGUUUCUACCGGGCACCGUAAAUGUCCGACUGGAGCCGUUCGGGCGGCUAUAAACAGACCUCAGGCCCGAAGCGUGGCGGCACCUGCCGCCGGUGGUAAAAAAGAUCGGAAGAGCACACGUCU [U7C G9A U10C C12G C13A] | 1.26
12 | GGGUCGCUACUGUAUAAUCGCGUGGAUAUGGCACGCAAGUUUCUACCGGGCACCGUAAAUGUCCGACUGGAGCCGUUCGGGCGGCUAUAAACAGACCUCAGGCCCGAAGCGUGGCGGCACCUGCCGCCGGUGGUAAAAAAGAUCGGAAGAGCACACGUCU [U7C G9A U10C C12G C13U] | 1.15
13 | GGGUCGCUACACGAUAAUCGCGUGGAUAUGGCACGCAAGUUUCUACCGGGCACCGUAAAUGUCCGACUGGAGCCGUUCGGGCGGCUAUAAACAGACCUCAGGCCCGAAGCGUGGCGGCACCUGCCGCCGGUGGUAAAAAAGAUCGGAAGAGCACACGUCU [U7C G9A U10C U11A C13G] | 1.12
14 | GGGUCGCUACACAAUAAUCGCGUGGAUAUGGCACGCAAGUUUCUACCGGGCACCGUAAAUGUCCGACUGGAGCCGUUCGGGCGGCUAUAAACAGACCUCAGGCCCGAAGCGUGGCGGCACCUGCCGCCGGUGGUAAAAAAGAUCGGAAGAGCACACGUCU [U7C G9A U10C U11A C13A] | 1.18
15 | GGGUCGCUACACUAUAAUCGCGUGGAUAUGGCACGCAAGUUUCUACCGGGCACCGUAAAUGUCCGACUGGAGCCGUUCGGGCGGCUAUAAACAGACCUCAGGCCCGAAGCGUGGCGGCACCUGCCGCCGGUGGUAAAAAAGAUCGGAAGAGCACACGUCU [U7C G9A U10C U11A C13U] | 1.33
16 | GGGUCGCUACAGGAUAAUCGCGUGGAUAUGGCACGCAAGUUUCUACCGGGCACCGUAAAUGUCCGACUGGAGCCGUUCGGGCGGCUAUAAACAGACCUCAGGCCCGAAGCGUGGCGGCACCUGCCGCCGGUGGUAAAAAAGAUCGGAAGAGCACACGUCU [U7C G9A U10C U11A C12G C13G] | 1.39
17 | GGGUCGCUACAGAAUAAUCGCGUGGAUAUGGCACGCAAGUUUCUACCGGGCACCGUAAAUGUCCGACUGGAGCCGUUCGGGCGGCUAUAAACAGACCUCAGGCCCGAAGCGUGGCGGCACCUGCCGCCGGUGGUAAAAAAGAUCGGAAGAGCACACGUCU [U7C G9A U10C U11A C12G C13A] | 1.11
18 | GGGUCGCUACAGUAUAAUCGCGUGGAUAUGGCACGCAAGUUUCUACCGGGCACCGUAAAUGUCCGACUGGAGCCGUUCGGGCGGCUAUAAACAGACCUCAGGCCCGAAGCGUGGCGGCACCUGCCGCCGGUGGUAAAAAAGAUCGGAAGAGCACACGUCU [U7C G9A U10C U11A C12G C13U] | 1.18
